This note sets out measurements from paper PMC3070544 (Structure (London, England : 1993), 2011).

This data set concerns the molecule itself. Briefly: AUC.

B1: mouse E-cadherin EC1-5 ectodomain, wild type (domain or fragment)
chain: DWVIPPISCPENEKGEFPKNLVQIKSNRDKETKVFYSITGQGADKPPVGVFIIERETGWLKVTQPLDREAIAKYILYSHAVSSNGEAVEDPMEIVITVTDQNDNRPEFTQEVFEGSVAEGAVPGTSVMKVSATDADDDVNTYNAAIAYTIVSQDPELPHKNMFTVNRDTGVISVLTSGLDRESYPTYTLVVQAADLQGEGLSTTAKAVITVKDINDNAPVFNPSTYQGQVPENEVNARIATLKVTDDDAPNTPAWKAVYTVVNDPDQQFVVVTDPTTNDGILKTAKGLDFEAKQQYILHVRVENEEPFEGSLVPSTATVTVDVVDVNEAPIFMPAERRVEVPEDFGVGQEITSYTAREPDTFMDQKITYRIWRDTANWLEINPETGAIFTRAEMDREDAEHVKNSTYVALIIATDDGSPIATGTGTLLLVLLDVNDNAPIPEPRNMQFCQRNPQPHIITILDPDLPPNTSPFTAELTHGASVNWTIEYNDAAQESLILQPRKDLEIGEYKIHLKLADNQNKDQVTTLDVHVCDCEGTVNNCMKA
modifications: O-linked glycosylation observed in the structure
B1 registered a Kd of about 100 µM.

Broadly, the Kd is the free concentration of one partner at which half of the binding sites on the other are occupied at equilibrium, for simple one-to-one binding.
